We go through 23 molecules from paper PMC6555819, “Comprehensive study of nuclear receptor DNA binding provides a revised framework for understanding receptor specificity”.

In one data set the target is THRa:RXRa (Homo sapiens, UniProt P10827;P19793 full;full). Nature of the data set: no ligand; PBM; 90 nM : 90 nM RXRa; PBS pH 7.4, 2% milk, 0.02% Triton X-100, 1 mM DTT, BSA, 0.4 mg/ml salmon testes DNA. The settings on record: tags: His kept;His cleaved; copies: 1;1; label: surface-attached array probe.
The target in another data set is PPARa:RXRa (Homo sapiens, UniProt Q07869;P19793 full;full). Nature of the data set: no ligand; PBM; 270 nM : 90 nM RXRa; PBS pH 7.4, 2% milk, 0.02% Triton X-100, 1 mM DTT, BSA, 0.4 mg/ml salmon testes DNA. The settings on record: tags: GST kept;His cleaved; copies: 1;1; label: surface-attached array probe. In outline:
(§1)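 On custom Agilent 4×180K arrays, double-stranded probes with 34-nt variable regions carried direct-repeat seeds, single-nucleotide variants, half-site ablations or random human genomic background. Ligand-free nuclear receptor dimers were applied for 1 h, and binding was read with antibodies against each partner (one per run). Binding z-scores come from regression-normalized fluorescence, with the random background probes as reference.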

In another data set the target is RARb:RXRa (Homo sapiens, UniProt P10826;P19793 full;full). The description is as above. The conditions noted are these: tags: His kept;His cleaved; copies: 1;1; label: surface-attached array probe. The essentials: as §1
The target of the next data set is RARg:RXRa (Homo sapiens, UniProt P13631;P19793 full;full). The description is as above. The settings on record: tags: His kept;His cleaved; copies: 1;1; label: surface-attached array probe. The essentials: as §1
A further data set addresses RXRa (Homo sapiens, UniProt P19793). Nature of the data set: no ligand; PBM; 180 nM; PBS pH 7.4, 2% milk, 0.02% Triton X-100, 1 mM DTT, BSA, 0.4 mg/ml salmon testes DNA. The conditions noted are these: tags: His cleaved; chain copies: 2; label: surface-attached array probe.
A further data set addresses FXR:RXRa (Homo sapiens, UniProt Q96RI1;P19793 full;full). Nature of the data set: no ligand; PBM; 270 nM : 90 nM RXRa; PBS pH 7.4, 2% milk, 0.02% Triton X-100, 1 mM DTT, BSA, 0.4 mg/ml salmon testes DNA. The settings on record: tags: His kept;His cleaved; copies: 1;1; label: surface-attached array probe. In outline: as §1

RARg:RXRa, sequence (P13631 whole entry, chain 1 of 2): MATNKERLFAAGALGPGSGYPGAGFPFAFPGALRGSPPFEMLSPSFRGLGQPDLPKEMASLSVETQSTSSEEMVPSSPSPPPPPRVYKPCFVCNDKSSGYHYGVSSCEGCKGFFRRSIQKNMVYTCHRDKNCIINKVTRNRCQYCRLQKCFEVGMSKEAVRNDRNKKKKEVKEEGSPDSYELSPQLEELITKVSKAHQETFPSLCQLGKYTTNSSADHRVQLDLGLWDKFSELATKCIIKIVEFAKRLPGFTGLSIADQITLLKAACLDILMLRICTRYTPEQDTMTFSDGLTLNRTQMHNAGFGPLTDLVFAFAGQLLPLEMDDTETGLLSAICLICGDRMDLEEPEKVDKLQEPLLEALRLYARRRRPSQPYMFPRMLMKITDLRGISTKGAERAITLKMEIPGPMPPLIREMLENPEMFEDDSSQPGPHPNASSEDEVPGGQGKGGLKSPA
RARg:RXRa, sequence (P19793 whole entry, chain 2 of 2): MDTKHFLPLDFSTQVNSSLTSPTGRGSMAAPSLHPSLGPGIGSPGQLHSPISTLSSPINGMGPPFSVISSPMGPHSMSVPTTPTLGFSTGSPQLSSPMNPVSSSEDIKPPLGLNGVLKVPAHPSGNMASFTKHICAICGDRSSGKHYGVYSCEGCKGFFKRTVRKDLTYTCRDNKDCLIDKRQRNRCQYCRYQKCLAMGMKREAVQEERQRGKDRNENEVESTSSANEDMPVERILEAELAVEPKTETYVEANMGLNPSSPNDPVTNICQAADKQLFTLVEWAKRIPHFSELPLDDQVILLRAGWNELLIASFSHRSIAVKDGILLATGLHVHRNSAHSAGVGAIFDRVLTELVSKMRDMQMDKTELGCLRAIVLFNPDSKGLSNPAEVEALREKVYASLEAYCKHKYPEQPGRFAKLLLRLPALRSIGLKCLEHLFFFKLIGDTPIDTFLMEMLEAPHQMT
THRa:RXRa, sequence (P10827 other isoform, or with tags, fused parts or gaps, chain 1 of 2): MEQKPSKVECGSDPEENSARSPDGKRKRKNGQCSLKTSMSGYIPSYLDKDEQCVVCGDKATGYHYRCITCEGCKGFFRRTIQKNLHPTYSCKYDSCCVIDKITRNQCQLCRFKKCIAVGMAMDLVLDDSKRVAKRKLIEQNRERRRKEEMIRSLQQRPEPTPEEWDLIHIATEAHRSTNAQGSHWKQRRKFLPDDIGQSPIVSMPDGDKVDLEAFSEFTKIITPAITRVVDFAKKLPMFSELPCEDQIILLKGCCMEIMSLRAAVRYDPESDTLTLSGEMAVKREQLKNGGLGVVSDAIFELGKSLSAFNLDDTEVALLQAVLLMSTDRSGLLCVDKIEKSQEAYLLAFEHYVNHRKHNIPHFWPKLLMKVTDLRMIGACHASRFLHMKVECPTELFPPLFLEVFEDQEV
THRa:RXRa, sequence (P19793 whole entry, chain 2 of 2): as the sequence (P19793 whole entry, chain 2 of 2) above
PPARa:RXRa, sequence (Q07869 whole entry, chain 1 of 2): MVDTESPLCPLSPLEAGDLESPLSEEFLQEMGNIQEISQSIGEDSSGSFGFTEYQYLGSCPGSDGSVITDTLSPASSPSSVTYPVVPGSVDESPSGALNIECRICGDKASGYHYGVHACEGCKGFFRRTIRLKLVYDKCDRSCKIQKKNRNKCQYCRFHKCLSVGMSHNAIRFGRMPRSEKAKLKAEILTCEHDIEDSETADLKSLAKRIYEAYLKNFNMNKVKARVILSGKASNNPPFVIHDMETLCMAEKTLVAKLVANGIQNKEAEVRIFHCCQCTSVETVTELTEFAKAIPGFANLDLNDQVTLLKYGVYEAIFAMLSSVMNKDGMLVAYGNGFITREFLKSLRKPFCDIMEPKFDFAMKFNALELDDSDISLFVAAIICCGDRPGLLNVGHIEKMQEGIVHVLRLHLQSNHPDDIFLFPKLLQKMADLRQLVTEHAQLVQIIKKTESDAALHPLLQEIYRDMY
PPARa:RXRa, sequence (P19793 whole entry, chain 2 of 2): as the sequence (P19793 whole entry, chain 2 of 2) above
RARb:RXRa, sequence (P10826 whole entry, chain 1 of 2): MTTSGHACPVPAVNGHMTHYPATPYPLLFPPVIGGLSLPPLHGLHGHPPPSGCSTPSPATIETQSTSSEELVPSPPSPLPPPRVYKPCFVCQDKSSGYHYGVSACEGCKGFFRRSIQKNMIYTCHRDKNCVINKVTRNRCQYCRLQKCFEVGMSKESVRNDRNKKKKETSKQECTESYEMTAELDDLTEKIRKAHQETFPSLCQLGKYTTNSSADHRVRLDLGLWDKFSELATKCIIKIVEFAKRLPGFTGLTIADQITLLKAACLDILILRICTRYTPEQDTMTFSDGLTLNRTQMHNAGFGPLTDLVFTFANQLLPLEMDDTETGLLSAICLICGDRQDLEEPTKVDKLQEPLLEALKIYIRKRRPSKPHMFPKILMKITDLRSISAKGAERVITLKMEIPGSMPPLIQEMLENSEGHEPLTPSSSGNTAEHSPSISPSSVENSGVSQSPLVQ
RARb:RXRa, sequence (P19793 whole entry, chain 2 of 2): as the sequence (P19793 whole entry, chain 2 of 2) above
FXR:RXRa, sequence (Q96RI1 whole entry, chain 1 of 2): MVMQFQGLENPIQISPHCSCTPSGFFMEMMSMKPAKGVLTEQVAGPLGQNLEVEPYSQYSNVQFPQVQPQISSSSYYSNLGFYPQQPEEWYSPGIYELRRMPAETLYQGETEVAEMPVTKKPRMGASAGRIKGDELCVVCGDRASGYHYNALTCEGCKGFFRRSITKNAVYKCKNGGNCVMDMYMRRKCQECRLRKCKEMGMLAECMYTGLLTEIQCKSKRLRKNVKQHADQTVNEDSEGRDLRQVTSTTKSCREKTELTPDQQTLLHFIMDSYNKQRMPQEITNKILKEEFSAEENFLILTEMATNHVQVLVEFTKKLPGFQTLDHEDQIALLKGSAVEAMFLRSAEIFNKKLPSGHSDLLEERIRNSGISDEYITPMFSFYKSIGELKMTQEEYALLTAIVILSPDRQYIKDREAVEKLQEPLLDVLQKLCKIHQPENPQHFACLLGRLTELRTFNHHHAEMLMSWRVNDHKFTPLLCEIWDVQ
FXR:RXRa, sequence (P19793 whole entry, chain 2 of 2): as the sequence (P19793 whole entry, chain 2 of 2) above
RXRa, sequence (P19793 whole entry): as the sequence (P19793 whole entry, chain 2 of 2) above

B1: NRC3_wobSeed88_DR3_C13T_o1 (dsDNA)
DNA 1: GCTAGCCTAGGTTATGCGGGCCAGTATAGTGTCGGCGCGATTGACAGCGTAGAATGAAGG
DNA 2: CCTTCATTCTACGCTGTCAATCGCGCCGACACTATACTGGCCCGCATAACCTAGGCTAGC
With B1, the binding signal with THRa:RXRa is 0.05 PBM z-score against 500 random probes; with PPARa:RXRa, 0.03 PBM z-score against 500 random probes.

B2: NRC3_random_hg19_285_o1 (dsDNA)
DNA 1: GCTTACTCTGTTGCACTTTGGAAGAAACAAATGTAAGCGATTGACAGCGTAGAATGAAGG
DNA 2: CCTTCATTCTACGCTGTCAATCGCTTACATTTGTTTCTTCCAAAGTGCAACAGAGTAAGC
As for B2, the values for the binding signal with THRa:RXRa and with RARb:RXRa were 0.3 PBM z-score against 500 random probes and 0.15 PBM z-score against 500 random probes, respectively.

B3: NRC3_wobSeed141_DR5_T11G_o1 (dsDNA)
DNA 1: GCAGTCAAAGGTCAGGACGAGGTAACGTAAAGCACGGCGATTGACAGCGTAGAATGAAGG
DNA 2: CCTTCATTCTACGCTGTCAATCGCCGTGCTTTACGTTACCTCGTCCTGACCTTTGACTGC
B3: the binding signal in the data set with THRa:RXRa was 4.79 PBM z-score against 500 random probes; with RARb:RXRa, 5.96 PBM z-score against 500 random probes; in the data set with RARg:RXRa, 7.48 PBM z-score against 500 random probes.

B4: NRC3_random_hg19_423_o1 (dsDNA)
DNA 1: GCATCAAGTGATCCTCCCACCTCAGCCTTCCAAGTCGCGATTGACAGCGTAGAATGAAGG
DNA 2: CCTTCATTCTACGCTGTCAATCGCGACTTGGAAGGCTGAGGTGGGAGGATCACTTGATGC
As to B4, the binding signal with THRa:RXRa is 0.07 PBM z-score against 500 random probes; with RARb:RXRa, 0.02 PBM z-score against 500 random probes.

B5: NRC3_random_hg19_121_o1 (dsDNA)
DNA 1: GCGCAGTAGGCACAGGGACTGTGTACAGATCTACACGCGATTGACAGCGTAGAATGAAGG
DNA 2: CCTTCATTCTACGCTGTCAATCGCGTGTAGATCTGTACACAGTCCCTGTGCCTACTGCGC
As to B5, the values for the binding signal in the data set with THRa:RXRa and with RARb:RXRa were -2.89 PBM z-score against 500 random probes and -1.18 PBM z-score against 500 random probes, respectively.

B6: NRC3_wobSeed121_DR5_G18T_o1 (dsDNA)
DNA 1: GCCAAACTAGGTCACCGTAAGGTCAAAGTCCGCATGGCGATTGACAGCGTAGAATGAAGG
DNA 2: CCTTCATTCTACGCTGTCAATCGCCATGCGGACTTTGACCTTACGGTGACCTAGTTTGGC
As for B6, the binding signal was 5.33 PBM z-score against 500 random probes with THRa:RXRa and 6.59 PBM z-score against 500 random probes in the data set with PPARa:RXRa.

B7: NRC3_random_hg19_264_o1 (dsDNA)
DNA 1: GCTCATCAGTCTAATGATGCTGTTGGTCCAGGGAGCGCGATTGACAGCGTAGAATGAAGG
DNA 2: CCTTCATTCTACGCTGTCAATCGCGCTCCCTGGACCAACAGCATCATTAGACTGATGAGC
With B7, the binding signal in the data set with THRa:RXRa was -0.53 PBM z-score against 500 random probes.

B8: NRC3_wobSeed37_DR1_T23G_o1 (dsDNA)
DNA 1: GCCGTCCAAGGTCAAAGGTCAGGGAAGAGATGACGGGCGATTGACAGCGTAGAATGAAGG
DNA 2: CCTTCATTCTACGCTGTCAATCGCCCGTCATCTCTTCCCTGACCTTTGACCTTGGACGGC
For the molecule B8, the binding signal in the data set with THRa:RXRa is 5.23 PBM z-score against 500 random probes; with RARb:RXRa, 6.26 PBM z-score against 500 random probes; with PPARa:RXRa, 7.45 PBM z-score against 500 random probes.

B9: NRC3_random_hg19_222_o1 (dsDNA)
DNA 1: GCGAAGCATTCTAAGAAACTTCTTCGTGATGTGTGTGCGATTGACAGCGTAGAATGAAGG
DNA 2: CCTTCATTCTACGCTGTCAATCGCACACACATCACGAAGAAGTTTCTTAGAATGCTTCGC
As to B9, the binding signal in the data set with THRa:RXRa is -0.74 PBM z-score against 500 random probes; in the data set with RARb:RXRa, -1.15 PBM z-score against 500 random probes; with RARg:RXRa, -0.49 PBM z-score against 500 random probes.

B10: NRC3_wobSeed97_DR4_A6C_o1 (dsDNA)
DNA 1: GCCAACCTAGGTCACGAAAGGTCAAAGTCGAATGACGCGATTGACAGCGTAGAATGAAGG
DNA 2: CCTTCATTCTACGCTGTCAATCGCGTCATTCGACTTTGACCTTTCGTGACCTAGGTTGGC
Take B10: the binding signal was 5.6 PBM z-score against 500 random probes in the data set with THRa:RXRa and 6.29 PBM z-score against 500 random probes with RARb:RXRa.

B11: NRC3_wobSeed106_DR4_G14A_o1 (dsDNA)
DNA 1: GCCTCGAAAGGTCAGTTGAGGTGAGTATACGGATAAGCGATTGACAGCGTAGAATGAAGG
DNA 2: CCTTCATTCTACGCTGTCAATCGCTTATCCGTATACTCACCTCAACTGACCTTTCGAGGC
For B11, the figures for the binding signal with THRa:RXRa and with RARb:RXRa were 5.33 PBM z-score against 500 random probes and 5.79 PBM z-score against 500 random probes, respectively.

B12: NRC3_wobSeed25_DR1_T25C_o1 (dsDNA)
DNA 1: GCCAAACTAGGTCAAAGGTCAAAGCCGAGCCAACCAGCGATTGACAGCGTAGAATGAAGG
DNA 2: CCTTCATTCTACGCTGTCAATCGCTGGTTGGCTCGGCTTTGACCTTTGACCTAGTTTGGC
Regarding B12, the binding signal with THRa:RXRa is 5.19 PBM z-score against 500 random probes; with PPARa:RXRa, 8.1 PBM z-score against 500 random probes.

B13: NRC3_wobSeed25_DR1_C26A_o1 (dsDNA)
DNA 1: GCCAAACTAGGTCAAAGGTCAAAGTAGAGCCAACCAGCGATTGACAGCGTAGAATGAAGG
DNA 2: CCTTCATTCTACGCTGTCAATCGCTGGTTGGCTCTACTTTGACCTTTGACCTAGTTTGGC
Regarding B13, the binding signal with THRa:RXRa is 5.12 PBM z-score against 500 random probes; in the data set with RARb:RXRa it was 6.19 PBM z-score against 500 random probes.

B14: NRC3_random_hg19_436_o1 (dsDNA)
DNA 1: GCATAGTTTCCAGCTTCATCCATGTCTCTGCAAAGAGCGATTGACAGCGTAGAATGAAGG
DNA 2: CCTTCATTCTACGCTGTCAATCGCTCTTTGCAGAGACATGGATGAAGCTGGAAACTATGC
On to B14, for which the values for the binding signal in the data set with THRa:RXRa and with PPARa:RXRa were 0.27 PBM z-score against 500 random probes and -0.03 PBM z-score against 500 random probes, respectively.

B15: NRC3_wobSeed133_DR5_T19A_o1 (dsDNA)
DNA 1: GCCGTCCAAGGTCAATGCAAGGTCAGTGAAAGCATTGCGATTGACAGCGTAGAATGAAGG
DNA 2: CCTTCATTCTACGCTGTCAATCGCAATGCTTTCACTGACCTTGCATTGACCTTGGACGGC
On to B15, for which the binding signal is 5 PBM z-score against 500 random probes in the data set with THRa:RXRa, 5.87 PBM z-score against 500 random probes in the data set with RARb:RXRa and 8.21 PBM z-score against 500 random probes in the data set with RARg:RXRa.

B16: NRC3_random_hg19_74_o1 (dsDNA)
DNA 1: GCAGAACAGCTGAGTGGCTCAAGACCGCAGAGGAACGCGATTGACAGCGTAGAATGAAGG
DNA 2: CCTTCATTCTACGCTGTCAATCGCGTTCCTCTGCGGTCTTGAGCCACTCAGCTGTTCTGC
Turning to B16, the figures for the binding signal with THRa:RXRa and with RARb:RXRa were -0.75 PBM z-score against 500 random probes and -1.89 PBM z-score against 500 random probes, respectively.

B17: NRC3_random_hg19_166_o1 (dsDNA)
DNA 1: GCAATGACATGATCATAGCTCACTGCAGCCTTGAATGCGATTGACAGCGTAGAATGAAGG
DNA 2: CCTTCATTCTACGCTGTCAATCGCATTCAAGGCTGCAGTGAGCTATGATCATGTCATTGC
As to B17, the binding signal in the data set with THRa:RXRa is -0.62 PBM z-score against 500 random probes.

B18: NRC3_random_hg19_173_o1 (dsDNA)
DNA 1: GCATCCACCACCATGCAGAGGCAAGAATGGTCAGGCGCGATTGACAGCGTAGAATGAAGG
DNA 2: CCTTCATTCTACGCTGTCAATCGCGCCTGACCATTCTTGCCTCTGCATGGTGGTGGATGC
For B18, the binding signal with RXRa was 0.16 PBM z-score against 500 random probes; in the data set with THRa:RXRa, 0.01 PBM z-score against 500 random probes.

B19: NRC3_random_hg19_113_o1 (dsDNA)
DNA 1: GCGAGATTCCAGATGAGAACTGCTCAGCCAAACTCTGCGATTGACAGCGTAGAATGAAGG
DNA 2: CCTTCATTCTACGCTGTCAATCGCAGAGTTTGGCTGAGCAGTTCTCATCTGGAATCTCGC
As to B19, the binding signal with THRa:RXRa was -0.47 PBM z-score against 500 random probes; with RARb:RXRa, -0.57 PBM z-score against 500 random probes; in the data set with PPARa:RXRa, -0.69 PBM z-score against 500 random probes.

B20: NRC3_random_hg19_228_o1 (dsDNA)
DNA 1: GCCACCGTGTTAGCCAGGATGGTCTCGATCTCCTGAGCGATTGACAGCGTAGAATGAAGG
DNA 2: CCTTCATTCTACGCTGTCAATCGCTCAGGAGATCGAGACCATCCTGGCTAACACGGTGGC
Turning to B20, the binding signal with THRa:RXRa is -1.6 PBM z-score against 500 random probes; with FXR:RXRa, -0.45 PBM z-score against 500 random probes.

B21: NRC3_wobSeed102_DR4_T18G_o1 (dsDNA)
DNA 1: GCCCTAGCAGGCCAATCGGGGTCACTCAAGGCTTGAGCGATTGACAGCGTAGAATGAAGG
DNA 2: CCTTCATTCTACGCTGTCAATCGCTCAAGCCTTGAGTGACCCCGATTGGCCTGCTAGGGC
Consider B21, for which the binding signal with THRa:RXRa was 4.94 PBM z-score against 500 random probes; in the data set with RARb:RXRa, 3.05 PBM z-score against 500 random probes.

B22: NRC3_random_hg19_48_o1 (dsDNA)
DNA 1: GCTAGTCCAGCTGGCTGGAGACTCATGGAAGAACAGGCGATTGACAGCGTAGAATGAAGG
DNA 2: CCTTCATTCTACGCTGTCAATCGCCTGTTCTTCCATGAGTCTCCAGCCAGCTGGACTAGC
As for B22, in the data set with THRa:RXRa, the binding signal is -1.43 PBM z-score against 500 random probes.

B23: NRC3_wobSeed18_DR0_C13G_o1 (dsDNA)
DNA 1: GCGATACAGGGTGAAGGCCAGAGTACGCGTATTGATGCGATTGACAGCGTAGAATGAAGG
DNA 2: CCTTCATTCTACGCTGTCAATCGCATCAATACGCGTACTCTGGCCTTCACCCTGTATCGC
As for B23, the binding signal with THRa:RXRa was 0.38 PBM z-score against 500 random probes; with RARg:RXRa, 0.44 PBM z-score against 500 random probes.
